This is an account of results in the domain aggregation screens of Martell et al. (2025).

The data set in a line: soluble fraction after stress (log2 fold change); higher = more stays soluble; pooled small domains, quantitative proteomics. To be noted: stress: pH 4. Summed up:
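Pooled custom libraries of small protein domains were stressed at pH 4 and then measured by high-throughput quantitative proteomics. The fold change in the amount of each domain that stays soluble after the acid stress serves as a measure of aggregation propensity. Fold changes are given on a log2 scale, and higher values mean more of the domain stayed soluble.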
As for “HMVIREVNDNPVSAEELRLGDRVKVLSLGQNGEIVTLPDEKGELTVQVGILKAKVNLDDIMLI”, the “soluble fraction (log2)” value was determined as 0.0234.
The figure for “HMVISAKRMQDRRDSILDAAREAFARAGFEGTSIADIARRAGVSDGLVYRYFASKRDLLNAVLTA” is 0.216; for “HMVIVGGDVIVHYVDTEGKKISDDVVKSGNVGEDYSTDQKTILGYRFKEVQGNTSGKFTDKTQVVTYIYT” it is 0.179.
The figure for “HMVKEVKVPDVEGLTTEEAIKELKKYGLAYTTKSEENTDIEEGKVIRTEPKKGSTKVKGSTVTIIESSG” is 0.253; for “HMVKFGERVKQLRLSAGMTQEQLAERIWVTKAAISNYELSERNPSPETIIKIAGVFGVTTDYLLGLED” it is -0.434.
The figure for “HMVKIVWSKEGPYVGTRVRRYFSQGPVDGTVVMYAKPQKGDDVALWRISHDDGDEEDLEEQELRLAID” is -1.69.
On to “HMVKLQATPSQRKTLDELYVQLKKLEPTAKEDLSLLRRLENSHLVSKQEAQGLISKAIGRVGALAVEQQP”, for which the “soluble fraction (log2)” value came to 0.0541.
Consider “HMVKNTIHVDLKGEVNKPGVYEVEEGTIVNDLITLANGFTKNAYQDNINLSKKLTDEMVIVVSKKGS”, for which the “soluble fraction (log2)” value is -0.461.
Consider “HMVKNVVIPDVSNKAPVDASNQLTDLGFEVVTEYKYIASDTIEEGKVVKTSPEIGSKRKYGQKITLYISSG”, for which the “soluble fraction (log2)” value is 0.205.
The figure for “HMVKRAYGEYVNVKLTDADLSKLKADFPADWQERIERLSTYMASTGKTYKNHLATIRNWARRDAERVSA” is -0.292.
The figure for “HMVKVSVYPNPAVDRITISGEVKAYAVYDATGKVVMKDTDYRGGAIGVSHLPAGIYIVRTDAGAVTVNK” is -0.246.
As for “HMVLSVRDRMVQILDQVKTGEYKRIEDFFSADEGRTGFVVSFVAILELVKGGLLTITQSKNLAPIYVRLPN”, the “soluble fraction (log2)” value is -0.108.
To “HMVLVEEYDTKDSASTFKIGYYARYNTKYGTPSKVGSYADNQRSGIWTFYTDSLKTYFKYNYSTGLIL” belongs -0.572; to “HMVLVGERRQKILEVVSSGKAVTVEELSRILHVSPSTVRRDLRFLESRGLLYRTHGGAMPPV”, -0.0726.
The figure for “HMVLVKFEWTPPDARILVDDHPVEARDKEMELPEGTHHVQALAPRGSGYESTVTDIEVRQGMDPVRIAL” is 0.115; for “HMVMRHTVEHDAELLAVLRLMYPASSSTKLRKMLTQGRVLVNDDVVHRAKHGVASGDTVDVIVRQRAE” it is 0.0827.
To “HMVNFKLIGNKIAEARKKVNISQAQLAQRLFISSQAVGKWERGESMPDIITFNRLAEILGVDLNYFSE” belongs 0.266; to “HMVNPDAPAPLYIVNGKETDKNIALAIKPEDVQDVRIIKNTVALQVYGEKGKNGVVIINTKPGV”, 0.0604.
Consider “HMVNSADLAAKPFIDLLVSTRQQLREAKQYDLADTIRDELTNHGITIEDKPQGSEWQYEFNPNS”, for which the “soluble fraction (log2)” value was -0.499.
The figure for “HMVNTYILNNKEYPIEIIRKNNKNTYLRVKEGKIIVTTNYLTSSFTINKLIKDNTSFINKALLKEN” is -0.0629; for “HMVNYKEILRLAHEGYSQRQIATNIGNSRNTVSEVLDAAKAANIAWPPEETVTNEQLGAILFPNRH” it is at least 0.43.
The figure for “HMVNYKEILRLSAEGNSQRQIAAGSGNSRNTVIEVLEAARARGITWPLDEPVTNEQLEAILFPNRY” is at least 0.43.
The figure for “HMVPEETKQFINQLNHGSLSIRMNAANNLEKLGLLAIPEIEAALPKAHGEAAFRLPRLLHALVLRETEYF” is 0.0598.
Turning to “HMVPEMIRDVISKSIRDMGVLPDHMQINERIALIQSLKKQQILGIKGAVAETARQLGISVPTVYRYMKKG”, the “soluble fraction (log2)” value was -0.125.
To “HMVPFISVTPTSLSFAKGGESKTVDIEASGAFSVGKVPTGFNLEVVNGRITITADANTGAARNGSVEFILA” belongs 0.00872; to “HMVPHTTSMVAEVQERLFNLNYDPGPINGRMDQATITAITRFQRNFSLPQTGQIDEGFLNTLRDARL”, 0.063; to “HMVPLGDLSKNERRAMELAATNGNVTTRALADDAQVTKRTASTTLRRLAKRGLLEWIGKGPSDPGQFYRIP”, -0.119.
To “HMVPLTPGELVGTEVRVLWWKEGRGEVIASSRGHQLTLEAHSEDPLRAGSTAVVLEAADDVLVVTS” belongs -1.18; to “HMVPPELEFLQSLMKIEDISELTAAIENNRDAVTDDFKEMLETVIENISGAPDTDPKLLERLKTIRTVLA”, -0.631; to “HMVPPVVRTIYGAGGKMTATFLFPGGYEVDAASGAELPGKYRVESISLDQVVLTDKDGNRVPVGFSSVAPT”, -0.161.
As for “HMVPQEVLPITLIIDGKLIEENLLYAKMTEQVLIQQLDINNIKSIKQILFAGLDSFGNFFYQEKQN”, the “soluble fraction (log2)” value is -1.91.
The figure for “HMVPTATVGENTSTLPVRQLPGGPVLVVLVRGDIVLPLPGHAFQNGDVWREISTVNGVIGWVPDEFLDY” is -1.3; for “HMVPTVSVDRDDTLRFEGRPVDWDVLKRELGAVAGIDELKIYADAKVSALTVSKIMKSASEAGVLQFILVT” it is -0.334; for “HMVQARDQNIEEGRQLVLRELDRLDLVNESLTDVAADMNMKSVEDMYAAIGAGDLRVGQVVHAVLKRAD” it is -0.218.
“HMVQDSEWWRNYQSAHDYFIQNGHLNVLRSDKKNTKLYNWIVGQRSSRWNSQGRINLLNSIGFIWDT”: the “soluble fraction (log2)” value is -1.65.
The figure for “HMVQISNTDDLYPIVQRIVDANPQSVEDYKNGKAKALGFLVGQMMKETKGKANPSMVNDLIIKAIEE” is 0.0143; for “HMVQIVINKEVQTTSQTILRENAGTSSRNIGYVDPNVKLRATLDRNSFYFIPEKKGWIMKSRVKLIEDLS” it is 0.0552.
The figure for “HMVQMNMLELQEEMQRDRSWIIKHLFQDEYFRRKIAKFSQFPINDSGKYLFHRKSMLKFLNDYAEEIVER” is -1.46; for “HMVQPSAAVRAHPVGAFVEQRQGLSDDQILALQKKWNEGIYARIQGTRWFLFSKDTPAVTSLLLVPDLP” it is -0.0222; for “HMVQVHEWTNKAGRTIKAKFVRGDAQSVTIFLGGRNFVLKIADLSEESQALARKLSAPPPPP” it is 0.0306.
Take “HMVQVPSLVGISEIEAKTLLTQAGFFVKIVEVFDANQPVGIVLAQAPSAGESRIIGSPVTITVNKAQ”: the “soluble fraction (log2)” value is -0.6.
To “HMVQVRQPAGAGDLFAKGRLHLSTGTIHTVKPLEVDLPKGRLTVVTGVSGSGKTTLILESLLPALAAAAA” belongs 0.307; to “HMVRSLESESVYDRQRAYEIAYQLRTEERPYSFIATQLNKAGLRPQKAARYEWYSVQELLRSA”, at least 0.43; to “HMVSDISTQYQKIINEALDKQPEVKLADIVTMIKEQTSNKVQNGIVENVAKQMNGIEIIKIGQAKGVRRTT”, 0.152.
To “HMVSDTGAIEAIVAQVLADNPKLVEGYLATPEDKRGKAIGPFIGLTRKAAAGVNPQVVMDVLKKKLSEL” belongs -0.733; to “HMVSEASELTDTINKIGSLAQALVGANKLSKTDLVGIIKKYHTSANYNSITDIGVAKNILAELEAKN”, -0.264.
Consider “HMVSFSIDEALVSAVKGPRSANVMSIQRQFLVRLSVERDGRVTITGANSKSVQQAREAVEAAVEEAKLHP”, for which the “soluble fraction (log2)” value was 0.238.
Take “HMVSGVMAQQAIAVLVQQEDKHAPLSDQALAERLQVQGIDISRRTVAKYRQLLQIPSAATRR”: the “soluble fraction (log2)” value is -0.0405.
To “HMVSIGSQVAKRRRELRLTQQNLAEKMGVSFQAISSWEREEFLPDINKLQKLAAILNTKISYLLEE” belongs -0.538; to “HMVSINETAFIQIKNSSATEIKEKITALKLDELKNVTITADIRTNKLIVVGPKATINKIQELVIELDTES”, -0.49.
